Substrate in data set [1]: OC[C@H]1OC(O)[C@H](O)[C@@H](O)[C@@H]1O
Put plainly: Steady-state kinetics, DCIP assay: C. thermophilus CDH C310Y. Format: biochemical, Corynascus thermophilus. The following applies: other: apparent, pH 5.5, 30° C.

Substrate in data set [2]: OC[C@H]1O[C@H](O[C@H]2[C@H](O)[C@@H](O)C(O)O[C@@H]2CO)[C@H](O)[C@@H](O)[C@@H]1O
The description is as above. Format: biochemical, Corynascus thermophilus. Conditions: other: apparent, pH 5.5, 30° C.

Substrate in data set [3]: OC[C@H]1OC(O)[C@H](O)[C@@H](O)[C@@H]1O
The data set can be described thus: Steady-state kinetics, DCIP assay: C. thermophilus flavodehydrogenase domain C310Y. The format is biochemical, Corynascus thermophilus. The following applies: other: apparent, pH 5.5, 30° C.

Substrate in data set [4]: OC[C@H]1O[C@H](O[C@H]2[C@H](O)[C@@H](O)C(O)O[C@@H]2CO)[C@H](O)[C@@H](O)[C@@H]1O
The data set is described as above. Conditions: other: apparent, pH 5.5, 30° C. Format: biochemical, Corynascus thermophilus.

Substrate in data set [5]: OC[C@H]1O[C@H](O[C@H]2[C@H](O)[C@@H](O)C(O)O[C@@H]2CO)[C@H](O)[C@@H](O)[C@@H]1O
The data set can be described thus: purified protein, by the assay type. Conditions: other: apparent, wt flavodehydrogenase domain, DCIP assay, pH 5.5, 30° C.

Substrate in data set [6]: OC[C@H]1O[C@H](O[C@H]2[C@H](O)[C@@H](O)C(O)O[C@@H]2CO)[C@H](O)[C@@H](O)[C@@H]1O
Put plainly: Steady-state kinetics, DCIP assay: M. thermophilum CDH N313S. Format: biochemical, Myriococcum thermophilum. The following applies: other: apparent, pH 4.5, 30° C.

Substrate in data set [7]: OC[C@H]1O[C@H](O[C@H]2[C@H](O)[C@@H](O)C(O)O[C@@H]2CO)[C@H](O)[C@@H](O)[C@@H]1O
Put plainly: Steady-state kinetics, DCIP assay: M. thermophilum CDH wt. Format: biochemical, Myriococcum thermophilum. Conditions: other: apparent, pH 4.5, 30° C.

Substrate in data set [8]: OC[C@H]1O[C@H](O[C@H]2[C@H](O)[C@@H](O)C(O)O[C@@H]2CO)[C@H](O)[C@@H](O)[C@@H]1O
The data set can be described thus: Steady-state kinetics, DCIP assay: M. thermophilum CDH N721D. The format is biochemical, Myriococcum thermophilum. The following applies: other: apparent, pH 4.5, 30° C.

B1: Corynascus thermophilus cellobiose dehydrogenase (CDH, SEQ ID NO: 7) variant C310Y (Thermothelomyces fergusii; C310Y) (protein)
chain: QMTEGTYTHEATGITFKTWTPSDGSTFTFGLALPGDALTNDATEYIGLLRCQITDPSSPGYCGISHGQSGQMTQALLLVAWASEDVVYTSFRYATGYTLPELYTGDAKLTQIASSVSGDSFEVLFRCENCFSWDQNGATGSVSTSNGALVLGYAASKSGLTGATCPDTAEFGFHNNGFGQWGAVLEGATSDSYEEWAQLATITPPTTCDGNGPGDKVCVPAPEDTYDYIVVGAGAGGITVADKLSEAGHKVLLIEKGPPSTGLWNGTMKPEWLEGTDLTRFDVPGLYNQIWVDSAGIACTDTDQMAGCVLGGGTAVNAGLWWKPHPADWDDNFPHGWKSSDLADATERVFSRIPGTWHPSQDGKLYRQEGFEVISQGLANAGWREVDANQEPSEKNRTYSHSVFMFSGGERGGPLATYLASAAQRSNFNLWVNTSVRRAIRTGPRVSGVELECLADGGFNGTVNLKEGGGVIFSAGAFGSAKLLLRSGIGPEDQLEIVASSKDGETFISKNDWIKLPVGHNLIDHLNTDLIITHPDVVFYDFYAAWDNPITEDKEAYLNSRSGILAQAAPNIGPLMWEEVTPSDGITRQFQWTCRVEGDSSKTNSTHAMTLSQYLGRGVVSRGRMGITSGLTTTVAEHPYLHNDGDLEAVIQGIQNVVDALSQVPDLEWVLPPPNTTVEEYVNSLIVSPANRRANHWMGTAKMGLDDGRSGGSAVVDLNTKVYGTDNLFVVDASIFPGMSTGNPSAMIVIVAEQAAQRILSLRY
The Km is the concentration of substrate that gives half-maximal velocity. One may read the kcat as the maximal rate divided by the concentration of active sites. Broadly, the kcat/Km is the turnover number divided by the Michaelis constant. For the protein B1, in data set [1], the Km is given as 37.5 mM, the kcat was found to be 19.67 s⁻¹ and the kcat/Km was 524.5 M⁻¹ s⁻¹. Further, in data set [2], the Km turned out to be 80.0 mM, the kcat stood at 0.95 s⁻¹ and the kcat/Km turned out to be 12 M⁻¹ s⁻¹.

B2: Corynascus thermophilus CDH flavodehydrogenase domain (amino acids 249-787 of SEQ ID NO: 7) variant C310Y (C310YDH) (Thermothelomyces fergusii; C310Y) (protein)
chain: YDYIVVGAGAGGITVADKLSEAGHKVLLIEKGPPSTGLWNGTMKPEWLEGTDLTRFDVPGLYNQIWVDSAGIACTDTDQMAGCVLGGGTAVNAGLWWKPHPADWDDNFPHGWKSSDLADATERVFSRIPGTWHPSQDGKLYRQEGFEVISQGLANAGWREVDANQEPSEKNRTYSHSVFMFSGGERGGPLATYLASAAQRSNFNLWVNTSVRRAIRTGPRVSGVELECLADGGFNGTVNLKEGGGVIFSAGAFGSAKLLLRSGIGPEDQLEIVASSKDGETFISKNDWIKLPVGHNLIDHLNTDLIITHPDVVFYDFYAAWDNPITEDKEAYLNSRSGILAQAAPNIGPLMWEEVTPSDGITRQFQWTCRVEGDSSKTNSTHAMTLSQYLGRGVVSRGRMGITSGLTTTVAEHPYLHNDGDLEAVIQGIQNVVDALSQVPDLEWVLPPPNTTVEEYVNSLIVSPANRRANHWMGTAKMGLDDGRSGGSAVVDLNTKVYGTDNLFVVDASIFPGMSTGNPSAMIVIVAEQAAQRILSLRY
Turning to B2, in data set [3], the Km is listed as 37.1 mM, the kcat was 17.6 s⁻¹ and the kcat/Km was found to be 474.4 M⁻¹ s⁻¹. Also, in data set [4], the Michaelis constant (Km) stood at 51.86 mM, the kcat turned out to be 0.69 s⁻¹ and the catalytic efficiency (kcat/Km) is 13.3 M⁻¹ s⁻¹.

B3: Corynascus thermophilus CDH flavodehydrogenase domain, recombinant wild type (wtDH), amino acids 249-787 of SEQ ID NO: 7 (Thermothelomyces fergusii) (protein)
chain: YDYIVVGAGAGGITVADKLSEAGHKVLLIEKGPPSTGLWNGTMKPEWLEGTDLTRFDVPGLCNQIWVDSAGIACTDTDQMAGCVLGGGTAVNAGLWWKPHPADWDDNFPHGWKSSDLADATERVFSRIPGTWHPSQDGKLYRQEGFEVISQGLANAGWREVDANQEPSEKNRTYSHSVFMFSGGERGGPLATYLASAAQRSNFNLWVNTSVRRAIRTGPRVSGVELECLADGGFNGTVNLKEGGGVIFSAGAFGSAKLLLRSGIGPEDQLEIVASSKDGETFISKNDWIKLPVGHNLIDHLNTDLIITHPDVVFYDFYAAWDNPITEDKEAYLNSRSGILAQAAPNIGPLMWEEVTPSDGITRQFQWTCRVEGDSSKTNSTHAMTLSQYLGRGVVSRGRMGITSGLTTTVAEHPYLHNDGDLEAVIQGIQNVVDALSQVPDLEWVLPPPNTTVEEYVNSLIVSPANRRANHWMGTAKMGLDDGRSGGSAVVDLNTKVYGTDNLFVVDASIFPGMSTGNPSAMIVIVAEQAAQRILSLRY
As to B3, the Km in data set [5] turned out to be 2.89 mM.

B4: Myriococcum thermophilum cellobiose dehydrogenase (CDH, SEQ ID NO: 1) variant N313S (Thermothelomyces myriococcoides; N313S) (protein)
chain: QNNVPNTFTDPDSGITFNTWGLDEDSPQTQGGFTFGVALPSDALTTDASEFIGYLKCARNDESGWCGISLGGPMTNSLLITAWPHEDTVYTSLRFATGYAMPDVYEGDAEITQVSSSVNSTHFSLIFRCKNCLQWSHGGSSGGASTSGGVLVLGWVQAFDDPGNPTCPEQITLQQHDNGMGIWGAQLNTDAASPSYTDWAAQATKTVTGDCEGPTETSVVGVPVPTGVSFDYIVVGGGAGGIPAADKLSEAGKSVLLIEKGFASTANTGGTLGPEWLEGHDLTRFDVPGLCSQIWVDSKGIACEDTDQMAGCVLGGGTAVNAGLWFKPYSLDWDYLFPDGWKYNDVQPAINRALSRIPGTDAPSTDGKRYYQEGFEVLSKGLAAGGWTSVTANNAPDKKNRTFAHAPFMFAGGERNGPLGTYFQTAKKRNNFDVWLNTSVKRVIREGGHITGVEVEPFRDGGYEGIVPVTKVTGRVILSAGTFGSAKILLRSGIGPEDQLEVVAASEKDGPTMIGNSSWINLPVGYNLDDHLNTDTVISHPDVVFYDFYEAWDDPIESDKNSYLESRTGILAQAAPNIGPMFWEEIVGADGIVRQLQWTARVEGSLGAPNGHTMTMSQYLGRGATSRGRMTITPSLTTIVSDVPYLKDPNDKEAVIQGIINLQNALQNVANLTWLFPNSTITPREYVESMVVSPSNRRSNHWMGTNKLGTDDGRKGGSAVVDLDTRVYGTDNLFVIDASIFPGVPTTNPTSYIVVAAEHASSRILALPDLEPVPKYGQCGGREWTGSFVCADGSTCEYQNEWYSQCL
On to B4, for which, in data set [6], the Km is on record as 52 mM, the kcat was found to be 1.3 s⁻¹ and the kcat/Km came out at 25 M⁻¹ s⁻¹.

B5: Myriococcum thermophilum cellobiose dehydrogenase (CDH), recombinant wild type, SEQ ID NO: 1 (Thermothelomyces myriococcoides) (protein)
chain: QNNVPNTFTDPDSGITFNTWGLDEDSPQTQGGFTFGVALPSDALTTDASEFIGYLKCARNDESGWCGISLGGPMTNSLLITAWPHEDTVYTSLRFATGYAMPDVYEGDAEITQVSSSVNSTHFSLIFRCKNCLQWSHGGSSGGASTSGGVLVLGWVQAFDDPGNPTCPEQITLQQHDNGMGIWGAQLNTDAASPSYTDWAAQATKTVTGDCEGPTETSVVGVPVPTGVSFDYIVVGGGAGGIPAADKLSEAGKSVLLIEKGFASTANTGGTLGPEWLEGHDLTRFDVPGLCNQIWVDSKGIACEDTDQMAGCVLGGGTAVNAGLWFKPYSLDWDYLFPDGWKYNDVQPAINRALSRIPGTDAPSTDGKRYYQEGFEVLSKGLAAGGWTSVTANNAPDKKNRTFAHAPFMFAGGERNGPLGTYFQTAKKRNNFDVWLNTSVKRVIREGGHITGVEVEPFRDGGYEGIVPVTKVTGRVILSAGTFGSAKILLRSGIGPEDQLEVVAASEKDGPTMIGNSSWINLPVGYNLDDHLNTDTVISHPDVVFYDFYEAWDDPIESDKNSYLESRTGILAQAAPNIGPMFWEEIVGADGIVRQLQWTARVEGSLGAPNGHTMTMSQYLGRGATSRGRMTITPSLTTIVSDVPYLKDPNDKEAVIQGIINLQNALQNVANLTWLFPNSTITPREYVESMVVSPSNRRSNHWMGTNKLGTDDGRKGGSAVVDLDTRVYGTDNLFVIDASIFPGVPTTNPTSYIVVAAEHASSRILALPDLEPVPKYGQCGGREWTGSFVCADGSTCEYQNEWYSQCL
Regarding B5, in data set [7], the Km stood at 6.8 mM, the kcat amounted to 0.32 s⁻¹ and the kcat/Km was 47 M⁻¹ s⁻¹.

B6: Myriococcum thermophilum cellobiose dehydrogenase (CDH, SEQ ID NO: 1) variant N721D (Thermothelomyces myriococcoides; N721D) (protein)
chain: QNNVPNTFTDPDSGITFNTWGLDEDSPQTQGGFTFGVALPSDALTTDASEFIGYLKCARNDESGWCGISLGGPMTNSLLITAWPHEDTVYTSLRFATGYAMPDVYEGDAEITQVSSSVNSTHFSLIFRCKNCLQWSHGGSSGGASTSGGVLVLGWVQAFDDPGNPTCPEQITLQQHDNGMGIWGAQLNTDAASPSYTDWAAQATKTVTGDCEGPTETSVVGVPVPTGVSFDYIVVGGGAGGIPAADKLSEAGKSVLLIEKGFASTANTGGTLGPEWLEGHDLTRFDVPGLCNQIWVDSKGIACEDTDQMAGCVLGGGTAVNAGLWFKPYSLDWDYLFPDGWKYNDVQPAINRALSRIPGTDAPSTDGKRYYQEGFEVLSKGLAAGGWTSVTANNAPDKKNRTFAHAPFMFAGGERNGPLGTYFQTAKKRNNFDVWLNTSVKRVIREGGHITGVEVEPFRDGGYEGIVPVTKVTGRVILSAGTFGSAKILLRSGIGPEDQLEVVAASEKDGPTMIGNSSWINLPVGYNLDDHLNTDTVISHPDVVFYDFYEAWDDPIESDKNSYLESRTGILAQAAPNIGPMFWEEIVGADGIVRQLQWTARVEGSLGAPNGHTMTMSQYLGRGATSRGRMTITPSLTTIVSDVPYLKDPNDKEAVIQGIINLQNALQNVANLTWLFPNSTITPREYVESMVVSPSNRRSDHWMGTNKLGTDDGRKGGSAVVDLDTRVYGTDNLFVIDASIFPGVPTTNPTSYIVVAAEHASSRILALPDLEPVPKYGQCGGREWTGSFVCADGSTCEYQNEWYSQCL
Regarding B6, in data set [8], the Km is reported as 6.1 mM, the kcat turned out to be 0.08 s⁻¹ and the kcat/Km was 13.2 M⁻¹ s⁻¹.

The values above are taken from patent publication US10184115B2, “Mutated cellobiose dehydrogenase with increased substrate specificity” (DIRECTSENS GMBH, priority 2012, dated 2019).
